# Molecular target: human neonatal Fc-receptor (FcRn) (human) (UniProt P55899)
# Assay: FcRn affinity chromatography, symmetrically modified anti-HER2 antibody
row,retention time,Substance
1,45.2 min,"anti-HER2 antibody, K288E (symmetric)"
2,46.2 min,"anti-HER2 antibody, K290H (symmetric)"
3,45.5 min,"anti-HER2 antibody, L309H (symmetric)"
4,52 min,"anti-HER2 antibody, N434H (symmetric)"

# Further lines, the substance ahead of its results:
row,Substance,retention time
1,"anti-HER2 antibody, E258H (symmetric)",45.6 min
2,"anti-HER2 antibody, R255D (symmetric)",41.4 min

# Molecular target: human neonatal Fc-receptor (FcRn) (human) (UniProt P55899)
# Assay: FcRn affinity chromatography
FcRn-affinity column retention time,RT [min] (retention time on the FcRn affinity column),Substance
41.3 min,,IgG1 Fc-region with L234A/L235A/P329G and Y436A (symmetric)
,0 min,"bispecific antibody (knobs-into-holes), first chain with I253A/H310A/H435A and second chain with H310A"
,0 min,"bispecific antibody (knobs-into-holes), first chain with I253A/H310A/H435A and second chain with H435A"
,0 min,"bispecific antibody (knobs-into-holes), first chain with I253A/H310A/H435A and second chain with I253A/H310A/H435A"

# Reference: patent US20190127457A1
